Molecular target: Lys38 (UniProt position 38, …)
Assay: kinetics
Details: 19°C; 50 mM/50 mM TRIS/HEPES (pH 8.3-6.3), TRIS/MES (pH 6.6, 5.8), TRIS/citric acid (pH 5.3-2.8); Transporter in the native yeast plasma membrane, turning over with 1 mM L-lactate. The authors link the 7.43 inflection to Lys 38 in the substrate-unbound state.

B1: Monocarboxylate transporter 1 (MCT1) (Homo sapiens) (protein)
chain: MPPAVGGPVGYTPPDGGWGWAVVIGAFISIGFSYAFPKSITVFFKEIEGIFHATTSEVSWISSIMLAVMYGGGPISSILVNKYGSRIVMIVGGCLSGCGLIAASFCNTVQQLYVCIGVIGGLGLAFNLNPALTMIGKYFYKRRPLANGLAMAGSPVFLCTLAPLNQVFFGIFGWRGSFLILGGLLLNCCVAGALMRPIGPKPTKAGKDKSKASLEKAGKSGVKKDLHDANTDLIGRHPKQEKRSVFQTINQFLDLTLFTHRGFLLYLSGNVIMFFGLFAPLVFLSSYGKSQHYSSEKSAFLLSILAFVDMVARPSMGLVANTKPIRPRIQYFFAASVVANGVCHMLAPLSTTYVGFCVYAGFFGFAFGWLSSVLFETLMDLVGPQRFSSAVGLVTIVECCPVLLGPPLLGRLNDMYGDYKYTYWACGVVLIISGIYLFIGMGINYRLLAKEQKANEQKKESKEEETSIDVAGKPNEVTKAAESPDQKDTDGGPKEEESPV
- pKa: 7.43
